Key:
Conditions in all cases: 50 mM HEPES, 150 mM NaCl, 10% glycerol (pH not given for the reactions; protein storage buffer pH 7.5), room temperature, 15 min (EMSA) or 40 min …
[1] = test system: T1, DbuR (Pseudomonas putida), ORF:fe707e5d; experiment: EMSA
T1 sequence: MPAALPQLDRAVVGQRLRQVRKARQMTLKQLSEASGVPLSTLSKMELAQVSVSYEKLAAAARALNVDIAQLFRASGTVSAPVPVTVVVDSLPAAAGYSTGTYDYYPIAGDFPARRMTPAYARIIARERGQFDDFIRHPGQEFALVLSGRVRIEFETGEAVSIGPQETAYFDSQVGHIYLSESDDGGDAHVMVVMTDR

[2] = test system: T1, DbuR (Pseudomonas putida), ORF:fe707e5d; experiment: DNase I footprinting
[3] = test system: T1, DbuR (Pseudomonas putida), ORF:fe707e5d; experiment: competition EMSA

TCAGGGATCTCGGCATGCGGCGGTGGTCGGGCATCTTACCTTGGACCCTTGCGCATTTCTAAATTCTCATATATTAGAATTCTCATAAATGATAATTGCCTGGCAGGAGCGTGCATGACCCCGACCTACGACA (double strand) [Pdbu 133 bp, 5'-FAM]
binding [1]: binds

TCAGGGATCTCGGCATGCGGCGGTGGTCGGGCATCTTACCTTGGACCCTTGCGCATTTCTAAATTCTCATATATTAGAATTCTCATAAATGATAATTGCCTGGCAGGAGCGTGCATGACCCCGACCTACGACA (double strand) [Pdbu 133 bp, 5'-FAM/5'-HEX]
binding [2]: binds

TCAGGGATCTCGGCATGCGGCGGTGGTCGGGCATCTTACCTTGGACCCTTGCGCATTTCTAAATTCTCATATATTAGAATTCTCATAAATGATAATTGCCTGGCAGGAGCGTGCATGACCCCGACCTACGACA (double strand) [Pdbu 133 bp, unlabeled]
binding [3]: binds

Reference: publication PMC12724383
